Results reported in US20230313187A1, “MODIFICATIONS OF MAMMALIAN CELLS USING ARTIFICIAL MICRO-RNA TO ALTER THEIR PROPERTIES AND THE COMPOSITIONS OF THEIR PRODUCTS” (DNA TWOPOINTO INC., priority 2020, published 2023).

Test system: Cricetulus griseus dihydrofolate reductase mRNA
Assay: Growth of a clonal cell line with amiRNA targeted toward dihydrofolate reductase with/without HT and MTX
Assay type: cell-based
Conditions: 50 nM MTX, no HT
Protocol: A monoclonal line (C426) was derived from the pool transfected with the transposon comprising multi-hairpin amiRNA with nucleotide sequence SEQ ID NO: 210 and selected with 800 μg/ml G418 described in Section 6.5.1. Growth of this clonal cell line in the presence and absence of HT and in the absence of HT and presence of 50 nM MTX was compared with the growth of a control cell line from which C426 was derived.
Cells were transferred to Sigma Advanced Fed Batch media with 5 uM glutamine and to an initial a density of 0.3×10^6 live cells/ml. Parallel cultures were grown (a) in the presence of HT, (b) in the absence of HT and (c) in the absence of HT and the presence of 50 nM MTX. At day 4, all cultures were diluted to adjust viable cell densities to 0.3×10^6 cell/ml. At day 8, all cultures were again diluted to adjust viable cell densities to 0.3×10^6 cell/ml. At day 13, all cultures except for the culture of C426 with 50 nM MTX were again diluted to adjust viable cell densities to 0.3×10^6 cell/ml.
Table 12. Growth of a clonal cell line with amiRNA targeted toward dihydrofolate reductase. […] Viable cell densities were measured at various times after the beginning of the experiment: the cell line is shown in column A, the presence of HT is indicated in column B and the concentration of MTX is shown in column C. […]

B1: SEQ ID NO: 210: three-hairpin amiRNA, guides SEQ ID NOs 82, 83, 84 complementary to Cricetulus griseus dihydrofolate reductase mRNA (nucleic acid)
chain: ATCTGATCTTCTGAAGAAAATATATTTCTTTTTATTCATAGCTCTTAACTAGTGGTGATAGCAATGTCAGCAGTGCCTTAACTCATAGATCTAAAGCCAAGTGAAGCCACAGATGTTGGCTTTAGCTCTATGAGTTCAAGTAAGGTTGACCATACTCTACTCTAGAGTTGTGTTTTAATGTATATTAATGTTACTAATGTGTTTACTAGTGGTGATAGCAATGTCAGCAGTGCCTTAGAGTACAACAGTTGCCCAGGGTGAAGCCACAGATGCCTGGGCAACCGTTGTACTCTCAAGTAAGGTTGACCATACTCTACTCTAGGTTATTTTTAGTATGATTCTGTAAAAATGAATTAATACTAACTAGTGGTGATAGCAATGTCAGCAGTGCCTTTGTTTAGAATTATACAGGGGCGTGAAGCCACAGATGGCCCCTGTATCATTCTAAACACAAGTAAGGTTGACCATACTCTACTCTAGTCAGTTTTATTGATAGTCTTTTCAGTATTATTGATAATCTT
- effect of MTX in the growth media on growth: sensitizes cells to the presence of MTX in the growth media
